Experimental data published in publication PMC5344210.

Key:
[1] = molecular target: UL141-GPI (GPI-anchored ectodomain of HCMV UL141, FIX strain) (human cytomegalovirus (FIX strain)) (UniProt Q6RJQ3); test: flow cytometry on cells
[2] = immunofluorescence of receptor clustering after TRAIL, U2OS; details: glycan lost; control: TRAIL-R1 WT
[3] = DISC immunoprecipitation and immunoblot, U2OS; details: glycan lost; control: TRAIL-R1 WT
[4] = DISC immunoprecipitation and immunoblot, reconstituted DKO cells; details: glycan lost; control: TRAIL-R1 WT
[5] = anti-TRAIL-R1 immunofluorescence after His-hTRAIL, reconstituted DKO cells; details: glycan lost; control: TRAIL-R1 WT
[6] = surface flow cytometry with MD5-1, B16; details: glycan lost; control: WT mTRAIL-R
[7] = receptor clustering upon ligand binding, B16 and U2OS; details: glycan lost; control: WT mTRAIL-R
receptor internalization = details: glycan lost; control: WT mTRAIL-R

Sequence of UniProt Q6RJQ3 (Q6RJQ3 37-278): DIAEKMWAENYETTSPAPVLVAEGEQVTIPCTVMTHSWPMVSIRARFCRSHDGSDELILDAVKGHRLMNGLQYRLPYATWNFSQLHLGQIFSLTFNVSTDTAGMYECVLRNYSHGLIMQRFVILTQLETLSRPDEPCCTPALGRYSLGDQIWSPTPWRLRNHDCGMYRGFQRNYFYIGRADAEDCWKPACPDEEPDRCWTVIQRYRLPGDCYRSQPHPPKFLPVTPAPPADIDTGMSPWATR

## TRAIL-R1-Fc N156A (N-glycosylation-deficient human TRAIL-R1 fused to human Fc IgG1) (from UniProt O00220 24-239) (Fc fusion)
[1]
  fold higher binding affinity than glycosylated TRAIL-R1: 5 fold

## TRAIL-R1: N156A
[2]
  oligomerisation: decreases
[3]
  other: DISC formation (caspase-8/-10 recruitment): decreases
[4]
  other: DISC formation (caspase-8/-10 recruitment): decreases
[5]
  oligomerisation: decreases

B1: mTRAIL-R (mouse TRAIL receptor): N99A (protein)
parent chain: MEPPGPSTPTASAAARADHYTPGLRPLPKRRLLYSFALLLAVLQAVFVPVTANPAHNRPAGLQRPEESPSRGPCLAGQYLSEGNCKPCREGIDYTSHSNHSLDSCILCTVCKEDKVVETRCNITTNTVCRCKPGTFEDKDSPEICQSCSNCTDGEEELTSCTPRENRKCVSKTAWASWHKLGLWIGLLVPVVLLIGALLVWKTGAWRQWLLCIKRGCERDPESANSVHSSLLDRQTSSTTNDSNHNTEPGKTQKTGKKLLVPVNGNDSADDLKFIFEYCSDIVPFDSWNRLMRQLGLTDNQIQMVKAETLVTREALYQMLLKWRHQTGRSASINHLLDALEAVEERDAMEKIEDYAVKSGRFTYQNAAAQPETGPGGSQCV
[6]
  expression_or_secretion: no change

B2: mTRAIL-R (mouse TRAIL receptor): N99/122A (protein)
parent chain: MEPPGPSTPTASAAARADHYTPGLRPLPKRRLLYSFALLLAVLQAVFVPVTANPAHNRPAGLQRPEESPSRGPCLAGQYLSEGNCKPCREGIDYTSHSNHSLDSCILCTVCKEDKVVETRCNITTNTVCRCKPGTFEDKDSPEICQSCSNCTDGEEELTSCTPRENRKCVSKTAWASWHKLGLWIGLLVPVVLLIGALLVWKTGAWRQWLLCIKRGCERDPESANSVHSSLLDRQTSSTTNDSNHNTEPGKTQKTGKKLLVPVNGNDSADDLKFIFEYCSDIVPFDSWNRLMRQLGLTDNQIQMVKAETLVTREALYQMLLKWRHQTGRSASINHLLDALEAVEERDAMEKIEDYAVKSGRFTYQNAAAQPETGPGGSQCV
[7]
  oligomerisation: decreases
Receptor internalization
  localisation_or_trafficking: increases
[6]
  expression_or_secretion: no change

B3: mTRAIL-R (mouse TRAIL receptor): N122/150A (protein)
parent chain: MEPPGPSTPTASAAARADHYTPGLRPLPKRRLLYSFALLLAVLQAVFVPVTANPAHNRPAGLQRPEESPSRGPCLAGQYLSEGNCKPCREGIDYTSHSNHSLDSCILCTVCKEDKVVETRCNITTNTVCRCKPGTFEDKDSPEICQSCSNCTDGEEELTSCTPRENRKCVSKTAWASWHKLGLWIGLLVPVVLLIGALLVWKTGAWRQWLLCIKRGCERDPESANSVHSSLLDRQTSSTTNDSNHNTEPGKTQKTGKKLLVPVNGNDSADDLKFIFEYCSDIVPFDSWNRLMRQLGLTDNQIQMVKAETLVTREALYQMLLKWRHQTGRSASINHLLDALEAVEERDAMEKIEDYAVKSGRFTYQNAAAQPETGPGGSQCV
[6]
  expression_or_secretion: no change

B4: mTRAIL-R (mouse TRAIL receptor): N99/150A (protein)
parent chain: MEPPGPSTPTASAAARADHYTPGLRPLPKRRLLYSFALLLAVLQAVFVPVTANPAHNRPAGLQRPEESPSRGPCLAGQYLSEGNCKPCREGIDYTSHSNHSLDSCILCTVCKEDKVVETRCNITTNTVCRCKPGTFEDKDSPEICQSCSNCTDGEEELTSCTPRENRKCVSKTAWASWHKLGLWIGLLVPVVLLIGALLVWKTGAWRQWLLCIKRGCERDPESANSVHSSLLDRQTSSTTNDSNHNTEPGKTQKTGKKLLVPVNGNDSADDLKFIFEYCSDIVPFDSWNRLMRQLGLTDNQIQMVKAETLVTREALYQMLLKWRHQTGRSASINHLLDALEAVEERDAMEKIEDYAVKSGRFTYQNAAAQPETGPGGSQCV
[6]
  expression_or_secretion: no change

B5: mTRAIL-R (mouse TRAIL receptor): N99/122/150A (protein)
parent chain: MEPPGPSTPTASAAARADHYTPGLRPLPKRRLLYSFALLLAVLQAVFVPVTANPAHNRPAGLQRPEESPSRGPCLAGQYLSEGNCKPCREGIDYTSHSNHSLDSCILCTVCKEDKVVETRCNITTNTVCRCKPGTFEDKDSPEICQSCSNCTDGEEELTSCTPRENRKCVSKTAWASWHKLGLWIGLLVPVVLLIGALLVWKTGAWRQWLLCIKRGCERDPESANSVHSSLLDRQTSSTTNDSNHNTEPGKTQKTGKKLLVPVNGNDSADDLKFIFEYCSDIVPFDSWNRLMRQLGLTDNQIQMVKAETLVTREALYQMLLKWRHQTGRSASINHLLDALEAVEERDAMEKIEDYAVKSGRFTYQNAAAQPETGPGGSQCV
[7]
  oligomerisation: decreases
[6]
  expression_or_secretion: decreases
